Results published in patent publication US20020164791A1.

Molecular target: endogenous BMP released from the ES cells (BMP4) (mouse) (UniProt P21275)
Test: cell-based or functional assay

Chain of UniProt P21275 (P21275 293-408 limits assumed): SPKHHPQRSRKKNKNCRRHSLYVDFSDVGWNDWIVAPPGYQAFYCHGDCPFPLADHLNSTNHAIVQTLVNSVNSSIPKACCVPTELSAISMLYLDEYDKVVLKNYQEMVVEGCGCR

numbers of primary neural stem cell colonies generated (ES cells in LIF, 20% v/v mCer-1 supernatant): 50 % increase
Substance: mouse Cerberus-like (mCer-1) protein (from UniProt O55233 18-272) (ligand)
